Laboratory results taken from patent US20150252107A1, “APLNR Modulators and Uses Thereof” (Regeneron Pharmaceuticals, Inc., priority 2013, published 2015).

T1: hAPLNR (Homo sapiens, UniProt P35414)
T1 construct: expressed in transfected cells
T1 sequence (P35414 1-380): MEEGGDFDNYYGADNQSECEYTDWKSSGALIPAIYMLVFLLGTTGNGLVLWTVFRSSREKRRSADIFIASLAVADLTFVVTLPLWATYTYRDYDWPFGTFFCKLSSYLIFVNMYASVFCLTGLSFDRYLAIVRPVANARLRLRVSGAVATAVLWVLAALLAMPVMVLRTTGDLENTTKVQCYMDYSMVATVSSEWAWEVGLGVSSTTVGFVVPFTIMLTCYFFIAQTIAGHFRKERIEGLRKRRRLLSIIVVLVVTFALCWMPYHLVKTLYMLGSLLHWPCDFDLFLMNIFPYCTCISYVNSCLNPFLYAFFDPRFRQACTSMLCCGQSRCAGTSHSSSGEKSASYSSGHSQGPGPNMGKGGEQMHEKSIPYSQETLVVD


Tests used:
hAPLNR [1] = molecular target: T1, hAPLNR; test: CRE assay of modified apelin peptides in HEK293/CRE-luc/hAPLNR cells; format: cell-based; settings: Table 9; 5 μM forskolin
Protocol: After 5 hours of incubation at 37° C. in 5% CO2, luminescence was measured following the addition of One Glo reagent (Promega, #E6051) using a Victor X instrument (Perkin Elmer). The data were fit by nonlinear regression to a 4-parameter logistic equation with Prism 5 software (GraphPad).

HEK293 parental cells = test: FACS binding to HEK293 parental cells; settings: 10 μg/mL antibody
Protocol: Binding ratios for human APLNR binding to purified anti-APLNR monoclonal antibodies were determined by a fluorescence-activated cell sorting (FACS) binding assay. […] The resulting stable cell lines, HEK293/CRE-luc/hAPLNR and HEK293/CRE-luc/MfAPLNR, were maintained in DMEM containing 10% FBS, NEAA, and penicillin/streptomycin with either 100 μg/mL Hygromycin B for hAPLNR cells or 500 μg/mL G418 for MfAPLNR cells.
For the FACS analysis, HEK293 parental, HEK293/CRE-luc/hAPLNR, and, HEK293/CRE-luc/mfAPLNR cells were dissociated using Enzyme Free Dissociation reagent (#S-004, Millipore, Billerica, Mass., USA) and 10^6 cells/well were plated onto 96-well v-bottom plates in PBS containing 1% FBS. […] Cells were then filtered and analyzed on Accuri Flow Cytometer (BD Biosciences, San Jose, Calif., USA). Unstained and secondary antibody alone controls were also tested for binding to all cell lines. […] Geometric mean (Geom. mean) of fluorescence for each antibody was then normalized to geometric mean of unstained cells to obtain relative binding of antibody (binding ratios) per each cell type: HEK293 (parental), HEK293/CRE-luc/hAPLNR and HEK293/CRE-luc/MfAPLNR.

hAPLNR [2] = molecular target: T1, hAPLNR; test: cyclic AMP (CRE-luciferase) assay, activation of hAPLNR in HEK293/CRE-luc/hAPLNR cells; format: cell-based; settings: without Apelin; for % Activation at 100 nM mAb (at 10 uM Forskolin) / % Activation at 100 nM mAb (at 5 uM Forskolin): Table 6A, % of maximum Apelin activation
Protocol: The ability of anti-APLNR antibodies to activate hAPLNR-mediated cell signaling was measured using a cyclic AMP assay. The hAPLNR is a 7-transmembrane G-protein coupled receptor (GPCR).
(§1) The resulting cell line, HEK293/CRE-luc/hAPLNR, was maintained in DMEM containing 10% FBS, NEAA, penicillin/streptomycin, and 100 μg/mL Hygromycin B.
(§2) Testing of antibodies included a no antibody control.
(§3) The results of all assays were analyzed using nonlinear regression (4-parameter logistics) within Prism 5 software (GraphPad).

hAPLNR [3] = molecular target: T1, hAPLNR; test: cyclic AMP (CRE-luciferase) assay, inhibition of hAPLNR in the presence of 100 pM Apelin; format: cell-based; settings: Tables 6C and 6D
Protocol: as §1, §2, §3

| Molecule | Binding Ratio of Geom. Mean to Unstained Cells, HEK293 Parental (HEK293 parental cells) | % Activation at 100 nM mAb (at 10 uM Forskolin) (hAPLNR [2]) | inhibition (maximum blockade) of 100ρM Apelin activation (hAPLNR [3]) | % Activation at 100 nM mAb (at 5 uM Forskolin) (hAPLNR [2]) | other results |
| --- | --- | --- | --- | --- | --- |
| CSCC[C@H](NC(=O)[C@@H]1CCCN1C(=O)CNC(=O)[C@H](CCCCN)NC(=O)[C@H](Cc1c[nH]cn1)NC(=O)[C@H](CO)NC(=O)[C@H](CC(C)C)NC(=O)[C@H](CCCNC(=N)N)NC(=O)[C@@H]1CCCN1C(=O)[C@H](CCCNC(=N)N)NC(=O)[C@@H](N)CCC(N)=O)C(=O)N1CCC[C@H]1C(=O)N[C@@H](Cc1ccccc1)C(=O)NCC(=O)NCC(=O)NCC(=O)NCC(=O)NCC(=O)O [Apelin-13 + 5G] |  |  |  |  | EC50 (hAPLNR [1]): 0.147 nM |
| H2aM9227N: anti-APLNR antibody, HCVR/LCVR SEQ ID NOs 50/58, mouse IgG2a Fc (antibody, V domains shown, mouse IgG2a Fc) VH: EVQLVESGGGLVQPGGSLRLSCAASGFTFSSFWMSWVRQVPGKGLEWVANIKQDGSEKYYVDSVKGRFTISRDNAKNSLYLQMNSLRAEDTAVYYCARDRFGYSFYDKGVRYYYGMDVWGQGTTVTVSS VL: DIQMTQSPSSLSVSVGDRVTITCRASQGIRNDLGWYQQKPGKAPKRLIYATSSLQSGVPSRFSGSGSGTEFTLTISGLQPEDFATYYCLQHNSYPRTFGQGTKVEIK | 4 | 12% |  |  | activation of hAPLNR, % of maximum Apelin activation at 100 nM, the highest antibody dose tested (hAPLNR [2]; text on Table 6A): 12% |
| H2aM9228N: anti-APLNR antibody, HCVR/LCVR SEQ ID NOs 66/74, mouse IgG2a Fc (antibody, V domains shown, mouse IgG2a Fc) VH: EVQLVESGGGLVQPGGSLRLSCAASGFTFSNYWMSWVRLAPGKGLEWVANIKQDGSERYYVGSVKGRFTISRGDAKNSLYLQMNSLRAEDTAVYYCARDRFGYSAFDKGVRYYYGMDVWGQGTTVTVSS VL: DIQMTQSPSSLSASVGDRVTITCRASQGIRNDLGWYQQKPGKAPKRLIYAASSLQSGVPSRFSGSGSGTEFTLTISSLQPEDFATYYCLQHNSYPRTFGQGTKVEIK | 3 | No Activation |  |  |  |
| H2aM9222N: anti-APLNR antibody, HCVR/LCVR SEQ ID NOs 34/42, mouse IgG2a Fc (antibody, V domains shown, mouse IgG2a Fc) VH: EVQLVESGGGLVQPGGSLRLSCAASGFTFSNYWMSWVRQAPGKGLEWVANIKQDGSERYYVGSVKGRFTISRGDAENSLYLQMNSLRAEDTAVYYCARDRFGYSAYDKGVRYYYGMDVWGQGTTVTVSS VL: DIQMTQSPSSLSASVGDRVTITCRASQGIRNDLGWYQQKPGKAPKRLIYAASSLQSGVPSRFSGSGSGTEFTLTISSLQPEDFATYYCLQHNSYPRTFGQGTKVEIK | 2 | No Activation |  |  |  |
| H4H9113P: anti-APLNR antibody, HCVR/LCVR SEQ ID NOs 210/218, human IgG4 Fc (antibody, V domains shown, human IgG4 Fc) VH: QVQLVQSGAEVKKPGASVEVSCKASGYTFTDYYIHWIRQAPGQGLEWMGWINPDSGRTNYAQKFQVRVTMTRDTSITTAYMELNRLKSDDTAVYYCARGPLRGYSGYDFFDYWGQGTLVTVSS VL: DIQMTQSPSSLSASVGDRVTITCRASQGIRNDLGWYQQKPGKAPNRLIYAASSLQSGVPSRFSGSGSGTEFTLTISSLHPEDFATYSCLQHNSFPLTFGGGTKVEIK |  |  | did not demonstrate any measurable blockade | No Activation |  |
| H2aM9230N: anti-APLNR antibody, HCVR/LCVR SEQ ID NOs 82/90, mouse IgG2a Fc (antibody, V domains shown, mouse IgG2a Fc) VH: EVQLVESGGGLVQPGGSLRLSCAASGFTFSSFWMSWVRQVPGKGLQWVANIKQDGSEKYYVDSVKGRFTISRDNAKNSLYLQMNSLRAEDTAVYYCARDRFGYSVYDKGVRYYYGMDVWGQGTTVTVSS VL: DIQMTQSPSSLSVSVGDRVTITCRASQGIRNDLGWYQQKPGKAPKRLIYAASSLQSGVPSRFSGSGSGTEFTLTISGLQSEDFATYYCLQHKSYPRTFGQGTKVEIK | 3 | No Activation |  |  |  |
| H4H9103P: anti-APLNR antibody, HCVR/LCVR SEQ ID NOs 162/170, human IgG4 Fc (antibody, V domains shown, human IgG4 Fc) VH: EVQLVESGGGLVQPGRSLRLSCAASGFTFDDYAMHWVRQVPGKGLEWVSGITWNSGDIGYADSVKGRFTISRDNAKNSLYLQMNSLRAEDTALYYCTKDKDSSGYYGIDVWGQGTTVTVSS VL: DIQMTQSPSSVSASVGDRVTITCRASQGIRTWLAWYQQKPGKAPKLLIYAASSLQSGVPSRFSGSESGTDFTLTISSLQPEDFATYYCQQANSFPFTFGPGTKVDIK |  |  | did not demonstrate any measurable blockade | No Activation |  |
| H4H9104P: anti-APLNR antibody, HCVR/LCVR SEQ ID NOs 178/186, human IgG4 Fc (antibody, V domains shown, human IgG4 Fc) VH: QVQLVESGGDLVKPGGSLRLSCAASGFTFSDYYMNWIRQAPGKGLEWVSYISSSGSTIHYADSVKGRFTISRDNAKNLVYLRMNSLRAEDTAVYFCAREREVHDYSDPYFFFYGMDVWGQGTTVTVSS VL: DIQMTQSPSSVSASVGDRVTITCRASQDVSSWLAWYQHKPGKAPKLLIFAASSLQSGVPSRFSGSGSGTDFTLTISSLQSEDFATYYCQQANSFPLTFGGGTKVEIK |  |  | did not demonstrate any measurable blockade | No Activation |  |
| H4H9101P: anti-APLNR antibody, HCVR/LCVR SEQ ID NOs 146/154, human IgG4 Fc (antibody, V domains shown, human IgG4 Fc) VH: QVQLVQSGAEVKKPGASVEVSCKASGYTFTDYYIHWIRQAPGQGLEWMGWINPDSGRTNYAQKFQVRVTMTRDTSITTAYMELNRLKSDDTAVYYCARGPLRGYSGYDFFDYWGQGTLVTVSS VL: DIQLTQSPSFLSASVGDRVTITCWASQGISSYLAWYQQKPGKAPKLLIYAASTLQSGVPSRFSGSGSGTEFTLTISSLQPEDFASYFCQQLNSNPRTFGQGTKVEIK |  |  | did not demonstrate any measurable blockade | No Activation |  |
| H4H9112P: anti-APLNR antibody, HCVR/LCVR SEQ ID NOs 194/202, human IgG4 Fc (antibody, V domains shown, human IgG4 Fc) VH: QVQLVQSGAEVKKPGASVEVSCKASGYTFTDYYIHWIRQAPGQGLEWMGWINPDSGRTNYAQKFQVRVTMTRDTSITTAYMELNRLKSDDTAVYYCARGPLRGYSGYDFFDYWGQGTLVTVSS VL: DIQMTQSPSSLSAFVGDRVTITCRASQSISSYLNWYQQKPGKAPKLLIYTASTLQRGVPSRFRGSGSGTDFTLTISSLQPEDFATYYCHQTYSIPITFGQGTRLEIK |  |  | did not demonstrate any measurable blockade | No Activation |  |
| H1M9207N: anti-APLNR antibody, HCVR/LCVR SEQ ID NOs 2/10, mouse IgG1 Fc (antibody, V domains shown, mouse IgG1 Fc) VH: EVQLVESGGGLAQPGGSLRLSCAASGFTFSNYWMSWVRQAPGKGLEWVANIKQDGSEKYYLESVKGRFTISRDNAKNLLYLQMNSLRAEDTAVFYCARPGLLRFLEPGRRYYSGMNVWGQGTTVTVSS VL: DIQLTQSPSFLSASVGDRVTITCWASQGIRSYLAWYQQKPGKAPKLLIYAASTLQSGVPSRFSGSGSGTEFTLTISSLQPEDFATYYCQQFNSYPWTFGQGTKVEIK | 4 | No Activation |  |  |  |
